In experiment [1] the target is YFP-D/NP_TAIL, yellow fluorescent protein fused to the nucleoprotein tail of D/bovine/France/2986/20 (influenza D virus D/bovine/France/2986/2012). The experiment in a line: SPR. In general terms: SPR reads the build-up and loss of mass on a sensor chip optically.
Experiment [2] addresses importin-α7 (Homo sapiens) (UniProt O60684). To be noted: cited from earlier work.
Experiment [3] deals with T1, human importin-α7 without its importin-β binding (IBB) domain (residues 58 to 536) (human, UniProt O60684 58-536).
T1 construct: also called ΔIBB importin-α7; Imp-α7
The experiment in a line: SPR. To be noted: both partners purified.

The target of experiment [4] is T2, human importin-α5 without its importin-β binding (IBB) domain (residues 66 to 538) (human, UniProt P52294 66-538).
T2 construct: also called ΔIBB importin-α5; Imp-α5
The experiment can be described thus: SPR. To be noted: both partners purified.

For experiment [5], the target named is T3, human importin-α3 without its importin-β binding (IBB) domain (residues 64 to 521) (human, UniProt O00629 64-521).
T3 construct: also called ΔIBB importin-α3; Imp-α3
T3 sequence (looked up): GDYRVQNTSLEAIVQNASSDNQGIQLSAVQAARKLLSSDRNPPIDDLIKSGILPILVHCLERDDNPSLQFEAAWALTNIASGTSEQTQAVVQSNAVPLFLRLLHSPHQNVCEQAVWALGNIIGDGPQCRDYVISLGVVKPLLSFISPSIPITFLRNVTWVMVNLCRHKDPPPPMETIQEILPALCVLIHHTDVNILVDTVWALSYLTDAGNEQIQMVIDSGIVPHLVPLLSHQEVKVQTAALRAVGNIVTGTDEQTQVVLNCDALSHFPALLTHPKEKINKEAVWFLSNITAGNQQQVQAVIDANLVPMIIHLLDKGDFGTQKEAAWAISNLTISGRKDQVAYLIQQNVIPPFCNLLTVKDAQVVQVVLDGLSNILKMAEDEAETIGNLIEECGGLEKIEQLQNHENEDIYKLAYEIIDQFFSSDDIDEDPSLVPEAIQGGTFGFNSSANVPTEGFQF
The experiment in a line: SPR. To be noted: both partners purified.

For experiment [6], the target named is T1, human importin-α7 without its …. The experiment in a line: SPR. To be noted: both partners purified. This is another data set of the same source.
In experiment [7] the target is T2, human importin-α5 without its …. The experiment in a line: SPR. To be noted: both partners purified. This is another data set of the same source.
In experiment [8] the target is T3, human importin-α3 without its …. The experiment in a line: SPR. To be noted: both partners purified. This is another data set of the same source.

T2 sequence (P52294 66-538): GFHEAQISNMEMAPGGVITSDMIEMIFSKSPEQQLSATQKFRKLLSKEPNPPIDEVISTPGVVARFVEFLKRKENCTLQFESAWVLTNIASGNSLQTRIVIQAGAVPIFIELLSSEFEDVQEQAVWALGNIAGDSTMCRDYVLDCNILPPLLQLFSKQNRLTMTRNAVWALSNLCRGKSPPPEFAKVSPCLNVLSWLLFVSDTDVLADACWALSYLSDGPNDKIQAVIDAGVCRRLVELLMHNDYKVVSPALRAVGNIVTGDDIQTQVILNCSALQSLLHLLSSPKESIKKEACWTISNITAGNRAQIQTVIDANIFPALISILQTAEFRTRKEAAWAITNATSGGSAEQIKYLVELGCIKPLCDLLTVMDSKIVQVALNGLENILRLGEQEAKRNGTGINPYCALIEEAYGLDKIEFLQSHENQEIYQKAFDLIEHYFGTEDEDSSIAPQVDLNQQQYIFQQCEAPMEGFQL
T1 sequence (O60684 58-536): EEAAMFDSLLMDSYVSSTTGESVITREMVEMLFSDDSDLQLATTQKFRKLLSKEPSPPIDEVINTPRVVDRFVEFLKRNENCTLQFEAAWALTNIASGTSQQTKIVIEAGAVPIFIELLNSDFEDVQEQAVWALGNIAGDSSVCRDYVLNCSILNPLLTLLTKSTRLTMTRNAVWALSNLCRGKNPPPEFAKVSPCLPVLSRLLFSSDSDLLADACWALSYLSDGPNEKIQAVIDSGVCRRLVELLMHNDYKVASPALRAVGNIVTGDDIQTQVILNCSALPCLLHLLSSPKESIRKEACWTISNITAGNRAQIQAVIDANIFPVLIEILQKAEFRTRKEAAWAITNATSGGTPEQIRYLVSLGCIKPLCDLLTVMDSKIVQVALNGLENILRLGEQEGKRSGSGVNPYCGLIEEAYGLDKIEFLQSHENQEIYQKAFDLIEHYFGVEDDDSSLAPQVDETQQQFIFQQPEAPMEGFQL

For “human importin-α7 without its importin-β binding (IBB) domain (residues 58 to 536) (from UniProt O60684 58-536) (domain or fragment)”, in experiment [1], the Kd – broadly, the constant that tells how readily two partners part at equilibrium – was found to be 29 nM; the koff – broadly, a measure of how fast the partners let go of each other – was found to be 0.104 s⁻¹; the kon (as a rule, a measure of how fast the partners come together) came out at 5e+06 M⁻¹ s⁻¹.

In experiment [1], “human importin-α3 without its importin-β binding (IBB) domain (residues 64 to 521) (from UniProt O00629 64-521) (domain or fragment)” came in with a Kd of 22 nM, a koff of 0.007 s⁻¹ and a kon of 2.8e+06 M⁻¹ s⁻¹.

In experiment [1], “human importin-α5 without its importin-β binding (IBB) domain (residues 66 to 538) (from UniProt P52294 66-538) (domain or fragment)” yielded a Kd of 21 nM, a koff of 0.5 s⁻¹ and an on-rate (kon) of 1.1e+06 M⁻¹ s⁻¹.

As to “influenza B nucleoprotein NPTAIL (30-71) (from UniProt P13885)”, the Kd in experiment [2] was 844 nM.

B1: B/NP_TAIL-YFP, nucleoprotein tail of B/Memphis/13/03 (residues 1 to 71) fused to yellow fluorescent (domain or fragment)
chain: MSNMDIDGINTGTIDKTPEEITSGTSGTTRPIIRPATLAPPSNKRTRNPSPERATTSSEADVGRKTQKKQT
With B1, the figures for the dissociation constant Kd in experiment [3], in experiment [4] and in experiment [5] were 405 ± 5 nM, 770 ± 24 nM and 308 ± 106 nM, respectively. Besides, the off-rate constant (koff) in experiment [6], in experiment [7] and in experiment [8] was > 1 s⁻¹ throughout. The on-rate (kon) in experiment [6], in experiment [7] and in experiment [8] was > 1e+07 M⁻¹ s⁻¹ throughout.

The record behind these values is article PMC7472415 (Viruses, 2020).
